Assays:
[1] = target: human CXCR3 (full length, splice variant A) expressed on transfected cells (human) (UniProt P49682)
[2] = target: human CXCR3 (full length, splice variant A) expressed on transfected cells (human) (UniProt P49682); assay: cell-based or functional assay
[3] = target: Full-length human CXCR3 receptor protein with C-terminal 6xHis and HPC4 tag (human) (UniProt P49682); assay: SPR (Biacore whole receptor assay), receptor on NTA chip, 1:1 fit
[4] = target: human CXCR3 (full length, splice variant A) expressed on transfected cells (human) (UniProt P49682); remark: listed apart in the source

Substance | IC50 (read off the curve), inhibition of CXCL10-induced calcium mobilization [all five panels] [1] [µg/mL] | IC50 (M), calcium mobilization to CXCL10 in human CXCR3-Gqi4qi4 CHO cells [2] [M] | Kd [3] [nM] | koff [3] [s⁻¹] | kon [3] [M⁻¹ s⁻¹] | IC50, inhibition of CXCL11-induced calcium mobilization in hCXCR3 HEK cells (FLIPR); bar labelled '+ CTRL' (panels A to C of the same sheet print '1C6 (+ CTRL)') [4] [µg/mL] | IC50, inhibition of CXCL11-induced calcium mobilization in hCXCR3 HEK cells (FLIPR); isotype control [4] [µg/mL]
Anti-hCXCR3 mAb clone 1C6 (Becton, Dickinson catalog #557183) (antibody) | 3 | 3.14e-06 | 3.51 | 0.000142 | 41100 | 0.12 | –
CTRL IgG1 (antibody) | – | – | – | – | – | – | 27.6
mouse CXCL11 (from UniProt Q9JHH5 22-100) (ligand) | – | – | 1.17 | 0.00426 | 3.69e+06 | – | –

Continued, values first:

IC50 (read off the curve), inhibition of CXCL10-induced calcium mobilization [all five panels] [1] [µg/mL] | IC50 (M), calcium mobilization to CXCL10 in human CXCR3-Gqi4qi4 CHO cells [2] [M] | Kd [3] [nM] | koff [3] [s⁻¹] | kon [3] [M⁻¹ s⁻¹] | IC50, inhibition of CXCL11-induced calcium mobilization in hCXCR3 HEK cells (FLIPR); bar labelled '+ CTRL' (panels A to C of the same sheet print '1C6 (+ CTRL)') [4] [µg/mL] | IC50, inhibition of CXCL11-induced calcium mobilization in hCXCR3 HEK cells (FLIPR); isotype control [4] [µg/mL] | Substance
– | – | 9.76 | 0.00127 | 136000 | – | – | human CXCL10 (from UniProt P02778 22-98) (ligand)
– | – | 1.72 | 0.00441 | 2.58e+06 | – | – | human CXCL11 (from UniProt O14625 22-94) (ligand)
